The values below come from patent publication EP4751739A1, “ANTIBODY-DRUG CONJUGATE TARGETING C-MET AND MEDICAL USE THEREOF” (Jiangsu Hengrui Pharmaceuticals Co., Ltd., priority 2023, dated 2025).

The target in this experiment is human c-Met on tumor cell lines (human) (UniProt P08581). The experiment can be described thus: cell-based or functional assay.
human c-Met on tumor cell lines (human), sequence (P08581 25-1390): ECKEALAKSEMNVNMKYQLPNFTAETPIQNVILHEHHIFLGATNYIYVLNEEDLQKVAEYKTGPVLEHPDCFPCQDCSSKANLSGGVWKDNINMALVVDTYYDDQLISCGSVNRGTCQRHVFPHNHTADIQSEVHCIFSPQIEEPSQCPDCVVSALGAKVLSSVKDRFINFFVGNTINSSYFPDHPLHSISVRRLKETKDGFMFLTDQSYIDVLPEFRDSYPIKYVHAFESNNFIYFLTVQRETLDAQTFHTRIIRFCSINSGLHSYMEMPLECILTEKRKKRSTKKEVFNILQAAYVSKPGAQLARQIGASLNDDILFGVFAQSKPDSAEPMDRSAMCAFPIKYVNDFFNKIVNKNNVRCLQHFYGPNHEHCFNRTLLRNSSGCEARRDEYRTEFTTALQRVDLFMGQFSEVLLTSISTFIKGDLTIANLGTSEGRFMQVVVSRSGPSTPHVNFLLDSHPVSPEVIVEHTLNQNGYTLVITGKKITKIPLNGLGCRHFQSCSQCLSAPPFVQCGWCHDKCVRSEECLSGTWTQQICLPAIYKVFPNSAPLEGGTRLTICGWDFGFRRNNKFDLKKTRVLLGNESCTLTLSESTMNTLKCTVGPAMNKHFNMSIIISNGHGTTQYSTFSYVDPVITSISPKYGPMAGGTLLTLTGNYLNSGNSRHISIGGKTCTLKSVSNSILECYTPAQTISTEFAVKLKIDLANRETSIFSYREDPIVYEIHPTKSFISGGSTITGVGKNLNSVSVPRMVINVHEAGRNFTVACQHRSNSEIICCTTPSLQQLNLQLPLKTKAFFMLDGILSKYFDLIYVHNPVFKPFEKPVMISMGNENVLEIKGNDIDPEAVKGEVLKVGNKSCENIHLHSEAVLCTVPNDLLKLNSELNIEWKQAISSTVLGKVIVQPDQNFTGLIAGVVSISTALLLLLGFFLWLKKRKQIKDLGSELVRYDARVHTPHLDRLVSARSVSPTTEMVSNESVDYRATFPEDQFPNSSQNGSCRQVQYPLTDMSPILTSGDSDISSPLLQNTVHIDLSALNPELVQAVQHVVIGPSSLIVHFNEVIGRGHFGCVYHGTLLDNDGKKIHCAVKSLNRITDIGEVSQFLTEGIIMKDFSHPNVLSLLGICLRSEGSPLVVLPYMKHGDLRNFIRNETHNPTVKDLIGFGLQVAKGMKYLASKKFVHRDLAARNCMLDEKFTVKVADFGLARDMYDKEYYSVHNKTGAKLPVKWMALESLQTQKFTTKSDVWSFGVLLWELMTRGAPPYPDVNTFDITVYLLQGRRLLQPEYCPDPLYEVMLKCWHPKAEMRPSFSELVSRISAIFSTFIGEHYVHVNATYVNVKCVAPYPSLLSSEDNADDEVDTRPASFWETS

With ABT-700 (antibody), the Endocytosis ratio% at 0 h, EBC-1 cells, 20 nM, flow cytometry is 0%; the Endocytosis ratio% at 0.5 h, EBC-1 cells, 20 nM, flow cytometry was 5.54%; the Endocytosis ratio% at 2 h, EBC-1 cells, 20 nM, flow cytometry worked out at 29.3%; the Endocytosis ratio% at 4 h, EBC-1 cells, 20 nM, flow cytometry worked out at 54.2%. The Endocytosis ratio% at 24 h, EBC-1 cells, 20 nM, flow cytometry stood at 97.8%.
Taken in the same sequence, the figures for Teli-VcMMAE (antibody) were 0%, 4.36%, 31.7%, 58% and 97.3%.
